This note sets out measurements from patent publication US20220098328A1, “ANTIBODIES TO M(H)DM2/4 AND THEIR USE IN DIAGNOSING AND TREATING CANCER” (NomoCan Pharmaceuticals LLC, priority 2017, published 2022).

“Also recorded” adds a separate entry of the source.

In assay [1] the target is T1, recombinant HDM2 protein (GST tagged) (Homo sapiens, UniProt Q00987).
T1 construct: NMC-103, NMC-204 and NMC-303 reacted with the recombinant full-length HDM2 protein; purchased Abcam ab188727
Briefly: Western blot (immunoblot). Type of assay: binding. The note with it: 1 μg/well protein, antibody 1 μg/ml; band at approximately 83 kD. As for the experimental part: Western Blot: As for immunoblots, 1 μg/well of recombinant HDM2 protein (GST tagged, Abcam, Cat. No. ab188727) was separated on 8-16% sodium dodecyl sulfate (SDS) polyacrylamide gel and proteins were then transferred to polyvinylidene difluoride (PVDF) membrane. The membrane was blocked with 5% milk followed by incubation with monoclonal antibody NMC-103, NMC-204 or NMC-303 at 1 μg/ml in 1% milk in PBS for 2 hours. The membrane was then washed ×3 times (10 minutes each) and incubated for 1 hour with corresponding HRP-conjugated secondary antibody (Goat anti-Mouse IgG (H&L), F(ab′)2 Frag Cross-adsorbed HRP (HRP-GaM F(ab′)2), ThermoFisher, Cat. No. A24524) diluted 1:5000 in 1% BSA-PBS. The membrane was then washed ×3 times and incubated with Pierce ECL Plus Western Blotting Substrate (ThermoFisher, Cat. No. #32132) for 10 min before developing on a LICOR Scanner.
On the technique in general: A western blot detects proteins with antibodies after separation by electrophoresis.

The test system of assay [2] is human melanoma A2058 cells. The assay can be described thus: Cell-ELISA on intact cells. Type of assay: cell-based. The note with it: for relative binding (reactivity) to intact cells, cell-ELISA: A2058, mAb 1 μg/mL, fixed, non-permeabilized cells. As for the experimental part: (§1) Cell-ELISA Methodology: 8,000-10,000 cells/well of a 96-well microplate were grown overnight. The next day, unbound cells were washed off with sterile 1×PBS. The cells in each well were fixed with freshly prepared 4% buffered paraformaldehyde (pH 7.2) for 1 hour followed by 3 washes with 1×PBS. The wells were then blocked with 5% BSA in PBS (100 μl/well) for 2 hours at room temperature. Microplate wells were then washed 5 times with 300 μl of ice cold 1×PBS. MAbs NMC-103, NMC-204 or NMC-303 at 1 μg/mL in 1% BSA/PBS were then incubated with various cancer or normal untransformed cells for 2 hours at room temperature. Wells were then washed with 300 μl of ice-cold 1×PBS for 5 times and corresponding secondary antibody HRP-GaM F(ab′)2 diluted 1:2500 or 1:5000 in PBS with 1% BSA were added at 100 μl/well for 1 hour at room temperature followed by washing 5 times with 300 μl of ice-cold 1×PBS. TMB Substrate Solution (1-Step™ Ultra TMB-ELISA, ThermoFisher, Cat. No. 34028) was then added at 50 μL to each microplate well and incubated at room temperature for 30 minutes. The reaction was stopped by addition of 50 μL of stop solution (ThermoFisher, Cat. No. SS04) to each well and absorbance of each well was measured at OD450 nm. The absorbance value of each experimental well was corrected for the absorbance value obtained from wells treated with isotype-identical mAbs included in each experiment. The results are thus expressed as “relative binding”.
(§2) In a 96-well microplate, 15,000 cells/well were cultured overnight. The next day, unbound cells were washed off with sterile 1×PBS. The cells in each well were fixed with freshly prepared 4% buffered paraformaldehyde (pH 7.2) for 1 hour, followed by 3 washes with 1×PBS. The wells were then blocked with 5% BSA in PBS (100 μl/well) for 2 hours at room temperature. Microplate wells were then washed 5 times with 300 μl of ice cold 1×PBS. Monoclonal antibodies NMC-H103 (VH4/VK3) or NMC-C303 at 5 μg/mL in 1% BSA/PBS were then incubated with various cancer cells for 2 hours at room temperature. Wells were then washed with 300 μl of ice-cold 1×PBS for 5 times and corresponding secondary antibody HRP-GaH F(ab′)2 diluted 1:2000 or 1:4000 in PBS with 1% BSA were added at 100 μl/well for 1 hour at room temperature followed by washing 5 times with 300 μl of ice-cold 1×PBS. TMB Substrate Solution (1-Step™ Ultra TMB-ELISA, ThermoFisher, Cat. No. 34028) was then added at 50 μL to each microplate well and incubated at room temperature for 30 minutes. The reaction was stopped by addition of 50 μL of stop solution (ThermoFisher, Cat. No. SS04) to each well and absorbance of each well was measured at OD450 nm. The absorbance value of each experimental well was corrected for the absorbance value obtained from wells treated with isotype-identical mAbs included in each experiment.
In general terms: In an ELISA, binding on a coated surface is turned into a signal by an enzyme label.

The subject of assay [3] is human ovarian cancer OVCAR-3 cells. Briefly: Cell-ELISA on intact cells. Type of assay: cell-based. The settings on record: for relative binding (reactivity) to intact cells, cell-ELISA: OVCAR-3 (resistant to adriamycin, melphalan, cisplatin), mAb 1 μg/mL, fixed, non-permeabilized cells. As to the method: as §1, §2
Assay [4] has as its system human pancreatic cancer MIAPaCa-2 cells. The assay can be described thus: In vitro growth inhibition (cell count). The assay is classed as cell-based. The note with it: overnight, MIAPaCa-2 8,000 cells/well. As to the method: Methodology used: Human pancreatic cancer MIAPaCa-2 cells (8,000 cells/well) were pre-incubated with mAb NMC-103, NMC-204 and anti-Cytochrome-C antibody (Santa Cruz, Cat No. sc-13156) at 1, 5 and 10 μg/mL, respectively. Cells in the presence of one of the antibodies at various concentrations were then plated in triplicate in 96-well cell culture plates overnight. The next day, each plate well was analyzed morphologically and a picture was taken from each well using EVOS FL microscope. Cell count was also performed and the number of living cells was graphed as % of control.

The subject of assay [5] is human uveal melanoma 92.1 cells. Briefly: Cell-ELISA on intact cells. Type of assay: cell-based. The settings on record: mAb 1 μg/mL, fixed, non-permeabilized cells. As to the method:
as §1

For assay [6], the system named is human triple negative breast cancer HCC1806 cells. The assay can be described thus: Cell-ELISA on intact cells. The assay is classed as cell-based. The note with it: mAb 1 μg/mL, fixed, non-permeabilized cells. As for the experimental part: as §1
In assay [7] the test system is normal human peripheral blood mononuclear cells (PBMCs). Briefly: Cell-ELISA on intact cells. Type of assay: cell-based. The note with it: freshly isolated normal human PBMCs. As to the method:
as §1

T1 sequence (Q00987 whole entry): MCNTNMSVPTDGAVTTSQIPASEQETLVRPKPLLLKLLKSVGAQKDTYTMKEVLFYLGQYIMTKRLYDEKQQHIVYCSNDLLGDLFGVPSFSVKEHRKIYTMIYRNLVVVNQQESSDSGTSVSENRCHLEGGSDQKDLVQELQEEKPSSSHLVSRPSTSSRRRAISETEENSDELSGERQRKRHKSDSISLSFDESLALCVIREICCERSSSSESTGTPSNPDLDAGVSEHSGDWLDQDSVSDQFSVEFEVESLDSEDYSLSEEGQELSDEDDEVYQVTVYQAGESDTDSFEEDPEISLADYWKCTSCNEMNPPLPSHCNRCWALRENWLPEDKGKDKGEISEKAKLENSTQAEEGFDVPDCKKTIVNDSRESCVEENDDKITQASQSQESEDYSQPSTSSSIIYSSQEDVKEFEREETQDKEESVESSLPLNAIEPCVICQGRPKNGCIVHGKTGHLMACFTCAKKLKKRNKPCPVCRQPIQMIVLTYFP

B1: NMC-103: mouse monoclonal antibody of the IgG1 isotype that binds to NMC-P1 (SEQ ID NO:1); VH SEQ ID NO:36, VL SEQ ID NO:37 (antibody, V domains shown)
VH: EVQLQESGGGLVQPGGSLRLSCTTSGFTFTHYYMSWVRQPPGKALEWLGFIRNKAKGYTAEYSASVKGRFTISRDNSQSILYLQMNTLRPEDSATYYCARDIGDNWGQGTLVTVSS
VL: DIVMTQAAFSNPVTLGTSASISCRSSKNLLHSNGITYLYWYLQRPGQSPQLLISRVSNLASGVPNRFSGSESGTDFTLRISRVEAEDVGVYFCAQLLELPYTFGGGTKLEIK
modifications: mAb NMC-103 Heavy Chain Variable Region; mAb NMC-103 Light Chain Variable Region
On to B1, for which the “reactivity with recombinant full-length HDM2-GST protein (immunoblot)” value in assay [1] is on record as “reacted”. In addition, the “relative binding (reactivity) to intact cells, cell-ELISA” value in assay [2], in assay [3], in assay [5] and in assay [6] was “reactivity” in each case. Further, the growth inhibitory effect in assay [4] (1 μg/mL antibody) was 65%; in assay [4] (5 μg/mL antibody), 84%; in assay [4] (10 μg/mL antibody), 91%. For the same molecule, the “binding to intact normal cells, cell-ELISA” value in assay [7] is “virtually no binding”.

B2: NMC-H103 (VH4/VK3): humanized NMC-103 variant, human IgG1, VH4 (SEQ ID NO:299) and VK3 (SEQ ID NO:297) (antibody, V domains shown)
VH: EVQLVESGGGLVQPGPSLRLSCTTSGFTFTHYYMSWVRQAPGKGLEWLGFIRNKAKGYTAEYSASVKGRFTISRDNSKSTLYLQMNSLRAEDTAVYYCARDIGDNWGQGTLVTVSS
VL: DIVMTQTPLSSPVTLGQPASISCRSSKNLLHSNGITYLYWYLQKPGQSPQLLISRVSNLASGVPDRFSGSESGTDFTLKISRVEAEDVGVYFCAQLLELPYTFGGGTKVEIK
modifications: human IgG1 constant regions lacking entries; mAb NMC-H103.VH4Heavy Chain Variable Region; mAb NMC-H103.VK3Light Chain Variable Region
As for B2, the “binding to intact, un-permeabilized cells, cell-based ELISA” value in assay [2] (mAb 5 μg/mL) was “binding”; in assay [3] (OVCAR-3 ovarian cancer cells, mAb 5 μg/mL) it was “binding”.

B3: NMC-204: mouse monoclonal antibody of the IgG3 isotype that binds to NMC-P2 (SEQ ID NO:2); VH SEQ ID NO:38, VL SEQ ID NO:39 (antibody, V domains shown)
VH: EVQLQESGSVLVRPGASVKLSCKASGDTLSGSWMHWAMQRPGQGLEWIGEIHLNRGTTNYNEKFKGKATVTVDTSSSTAYVDLSSLTSEDSAVYYCARSPGFAYWGQGTLVTVSA
VL: GIVMTQAAPSVPVTPGESVSISCRSSKSLLHSNGNSYLYWFLQRPGQSPQLLIYRMSNLASGVPDRFSGSGSGTAFTLRITRVEAEDVGVYYCMQHLEYPFTFGSGTKLEIK
modifications: mAb NMC-204 Heavy Chain Variable Region; mAb NMC-204 Light Chain Variable Region
For B3, the “reactivity with recombinant full-length HDM2-GST protein (immunoblot)” value in assay [1] is reported as “reacted”. In addition, the “relative binding (reactivity) to intact cells, cell-ELISA” value in assay [2], in assay [3], in assay [5] and in assay [6] was “reactivity” throughout. Moreover, the figures for the growth inhibitory effect in assay [4] (1 μg/mL antibody), in assay [4] (5 μg/mL antibody) and in assay [4] (10 μg/mL antibody) were 65%, 73% and 77%, respectively. Moreover, the “binding to intact normal cells, cell-ELISA” value in assay [7] is listed as “did not react; also recorded: virtually no binding”.
